Patent US20090232811A1

Molecular target: recombinant human ANGPT2 (full-length ANGPT2-His protein, R&D Systems) (human) (UniProt O15123)
Assay: cellular FACS IGF-1R-ANGPT2 bridging assay on I24 cells with purified Bispecific VL-VH/CL-CH1 exchange mix and 2 µg/mL hANGPT2; isotype control in place of <Ang-2>mIgG1-Biotin, SA-PE (FL2-H)

Chain of UniProt O15123 (O15123 19-496 limits assumed): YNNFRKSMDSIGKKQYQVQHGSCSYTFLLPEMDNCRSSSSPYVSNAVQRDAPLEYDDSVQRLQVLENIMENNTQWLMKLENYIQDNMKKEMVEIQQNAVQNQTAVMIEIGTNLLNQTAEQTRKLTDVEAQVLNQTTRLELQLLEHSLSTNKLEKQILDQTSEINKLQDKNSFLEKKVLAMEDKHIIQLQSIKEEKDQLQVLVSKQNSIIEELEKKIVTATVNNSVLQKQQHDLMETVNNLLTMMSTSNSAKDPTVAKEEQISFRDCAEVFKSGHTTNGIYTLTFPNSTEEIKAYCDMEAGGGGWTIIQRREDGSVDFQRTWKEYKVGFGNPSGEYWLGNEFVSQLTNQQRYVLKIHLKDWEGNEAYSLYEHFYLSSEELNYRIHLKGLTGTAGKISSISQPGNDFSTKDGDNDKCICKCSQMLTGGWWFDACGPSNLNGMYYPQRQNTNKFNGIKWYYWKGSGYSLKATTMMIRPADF

mIgG1-Biotin-Isotype control (antibody) was tested, and the Mean was 8.7.
